Results reported in patent US20030129724A1 (Harvard, published 2003).

T1: mSin3A (UniProt Q96ST3 1-1273)
T1 construct: Endogenous protein detected by Western blot in immunoprecipitates; also called co-repressor mSin3A
T1 sequence (looked up): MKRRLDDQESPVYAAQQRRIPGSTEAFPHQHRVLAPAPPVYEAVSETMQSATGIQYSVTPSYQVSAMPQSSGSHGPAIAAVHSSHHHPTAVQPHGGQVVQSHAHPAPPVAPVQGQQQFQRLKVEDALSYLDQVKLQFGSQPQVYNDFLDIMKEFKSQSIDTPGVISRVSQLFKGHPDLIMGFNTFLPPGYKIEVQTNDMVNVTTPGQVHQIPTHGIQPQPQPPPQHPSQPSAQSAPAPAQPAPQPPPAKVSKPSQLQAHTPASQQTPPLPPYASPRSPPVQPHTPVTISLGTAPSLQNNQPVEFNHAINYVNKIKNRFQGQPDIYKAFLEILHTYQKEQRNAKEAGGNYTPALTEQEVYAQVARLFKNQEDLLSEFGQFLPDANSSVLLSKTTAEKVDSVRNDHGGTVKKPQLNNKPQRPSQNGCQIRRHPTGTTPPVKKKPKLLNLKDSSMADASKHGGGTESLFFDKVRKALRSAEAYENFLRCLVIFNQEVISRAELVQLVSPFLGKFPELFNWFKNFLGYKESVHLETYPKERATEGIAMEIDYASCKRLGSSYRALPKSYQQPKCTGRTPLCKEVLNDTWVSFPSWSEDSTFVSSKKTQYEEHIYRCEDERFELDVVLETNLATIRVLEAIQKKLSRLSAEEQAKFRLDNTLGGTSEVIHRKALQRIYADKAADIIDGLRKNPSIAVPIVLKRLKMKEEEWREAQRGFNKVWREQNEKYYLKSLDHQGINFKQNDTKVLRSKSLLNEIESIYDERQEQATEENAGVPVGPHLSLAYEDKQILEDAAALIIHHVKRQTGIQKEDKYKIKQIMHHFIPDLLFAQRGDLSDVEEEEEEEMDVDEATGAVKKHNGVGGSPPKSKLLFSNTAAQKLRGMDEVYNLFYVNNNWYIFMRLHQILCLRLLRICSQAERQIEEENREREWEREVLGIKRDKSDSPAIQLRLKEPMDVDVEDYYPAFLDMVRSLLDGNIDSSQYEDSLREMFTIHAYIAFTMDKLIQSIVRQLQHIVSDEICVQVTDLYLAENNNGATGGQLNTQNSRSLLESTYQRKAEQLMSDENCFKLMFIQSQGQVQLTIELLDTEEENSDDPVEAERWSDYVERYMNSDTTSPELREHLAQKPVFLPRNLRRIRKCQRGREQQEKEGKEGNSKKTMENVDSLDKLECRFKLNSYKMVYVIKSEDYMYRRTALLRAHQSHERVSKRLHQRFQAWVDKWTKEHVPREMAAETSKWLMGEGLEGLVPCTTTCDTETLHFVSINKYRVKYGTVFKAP

B1: HDAC4 S246/466/632A triple mutant (protein)
chain: MSSQSHPDGLSGRDQPVELLNPARVNHMPSTVDVATALPLQVAPSAVPMDLRLDHQFSLPVAEPALREQQLQQELLALKQKQQIQRQILIAEFQRQHEQLSRQHEAQLHEHIKQQQEMLAMKHQQELLEHQRKLERHRQEQELEKQHREQKLQQLKNKEKGKESAVASTEVKMKLQEFVLNKKKALAHRNLNHCISSDPRYWYGKTQHSSLDQSSPPQSGVSTSYNHPVLGMYDAKDDFPLRKTAAEPNLKLRSRLKQKVAERRSSPLLRRKDGPVVTALKKRPLDVTDSACSSAPGSGPSSPNNSSGSVSAENGIAPAVPSIPAETSLAHRLVAREGSAAPLPLYTSPSLPNITLGLPATGPSAGTAGQQDTERLTLPALQQRLSLFPGTHLTPYLSTSPLERDGGAAHSPLLQHMVLLEQPPAQAPLVTGLGALPLHAQSLVGADRVSPSIHKLRQHRPLGRTQAAPLPQNAQALQHLVIQQQHQQFLEKHKQQFQQQQLQMNKIIPKPSEPARQPESHPEETEEELREHQALLDEPYLDRLPGQKEAHAQAGVQVKQEPIESDEEEAEPPREVEPGQRQPSEQELLFRQQALLLEQQRIHQLRNYQASMEAAGIPVSFGGHRPLSRAQASPASATFPVSVQEPPTKPRFTTGLVYDTLMLKHQCTCGSSSSHPEHAGRIQSIWSRLQETGLRGKCECIRGRKATLEELQTVHSEAHTLLYGTNPLNRQKLDSKKLLGSLASVFVRLPCGGVGVDSDTIWNEVHSAGAARLAVGCVVELVFKVATGELKNGFAVVRPPGHHAEESTPMGFCYFNSVAVAAKLLQQRLSVSKILIVDWDVHHGNGTQQAFYSDPSVLYMSLHRYDDGNFFPGSGAPDEVGTGPGVGFNVNMAFTGGLDPPMGDAEYLAAFRTVVMPIASEFAPDVVLVSSGFDAVEGHPTPLGGYNLSARCFGYLTKQLMGLAGGRIVLALEGGHDLTAICDASEACVSALLGNELDPLPEKVLQQRPNANAVRSMEKVMEIHSKYWRCLQRTTSTAGRSLIEAQTCENEEAETVTAMASLSVGVKPAEKRPDEEPMEEEPPL
B2: HDAC3 (enzyme, human, UniProt O15379 1-428, looked up)
chain: MAKTVAYFYDPDVGNFHYGAGHPMKPHRLALTHSLVLHYGLYKKMIVFKPYQASQHDMCRFHSEDYIDFLQRVSPTNMQGFTKSLNAFNVGDDCPVFPGLFEFCSRYTGASLQGATQLNNKICDIAINWAGGLHHAKKFEASGFCYVNDIVIGILELLKYHPRVLYIDIDIHHGDGVQEAFYLTDRVMTVSFHKYGNYFFPGTGDMYEVGAESGRYYCLNVPLRDGIDDQSYKHLFQPVINQVVDFYQPTCIVLQCGADSLGCDRLGCFNLSIRGHGECVEYVKSFNIPLLVLGGGGYTVRNVARCWTYETSLLVEEAISEELPYSEYFEYFAPDFTLHPDVSTRIENQNSRQYLDQIRQTIFENLKMLNHAPSVQIHDVPADLLTYDRTDEADAEERGPEENYSRPEAPNEFYDGDHDNDKESDVEI
notes: Endogenous protein co-immunoprecipitated from cell lysate; also used here for HDAC3 of staurosporine-treated cells; also called HDAC3 from untreated cells
B3: Recombinant FLAG-epitope tagged HDAC6 (enzyme, not shown: small tags and cut ends)
chain: MTSTGQDSTTTRQRRSRQNPQSPPQDSSVTSKRNIKKGAVPRSIPNLAEVKKKGKMKKLGQAMEEDLIVGLQGMDLNLEAEALAGTGLVLDEQLNEFHCLWDDSFPEGPERLHAIKEQLIQEGLLDRCVSFQARFAEKEELMLVHSLEYIDLMETTQYMNEGELRVLADTYDSVYLHPNSYSCACLASGSVLRLVDAVLGAEIRNGMAIIRPPGHHAQHSLMDGYCMFNHVAVAARYAQQKHRIRRVLIVDWDVHHGQGTQFTFDQDPSVLYFSIHRYEQGRFWPHLKASNWSTTGFGQGQGYTINVPWNQVGMRDADYIAAFLHVLLPVALEFQPQLVLVAAGFDALQGDPKGEMAATPAGFAQLTHLLMGLAGGKLILSLEGGYNLRALAEGVSASLHTLLGDPCPMLESPGAPCRSAQASVSCALEALEPFWEVLVRSTETVERDNMEEDNVEESEEEGPWEPPVLPILTWPVLQSRTGLVYDQNMMNHCNLWDSHHPEVPQRILRIMCRLEELGLAGRCLTLTPRPATEAELLTCHSAEYVGHLRATEKMKTRELHRESSNFDSIYICPSTFACAQLATGAACRLVEAVLSGEVLNGAAVVRPPGHHAEQDAACGFCFFNSVAVAARHAQTISGHALRILIVDWDVHHGNGTQHMFEDDPSVLYVSLHRYDHGTFFPMGDEGASSQIGRAAGTGFTVNVAWNGPRMGDADYLAAWHRLVLPIAYEFNPELVLVSAGFDAARGDPLGGCQVSPEGYAHLTHLLMGLASGRIILILEGGYNLTSISESMAACTRSLLGDPPPLLTLPRPPLSGALASITETIQVHRRYWRSLRVMKVEDREGPSSSKLVTKKAPQPAKPRLAERMTTREKKVLEAGMGKVTSASFGEESTPGQTNSETAVVALTQDQPSEAATGGATLAQTISEAAIGGAMLGQTTSEEAVGGATPDQTTSEETVGGAILDQTTSEDAVGGATLGQTTSEEAVGGATLAQTISEAAMEGATLDQTTSEEAPGGTELIQTPLASSTDHQTPPTSPVQGTTPQISPSTLIGSLRTLELGSESQGASESQAPGEENLLGEAAGGQDMADSMLMQGSRGLTDQAIFYAVTPLPWCPHLVAVCPIPAAGLDVTQPCGDCGTIQENWVCLSCYQVYCGRYINGHMLQHHGNSGHPLVLSYIDLSAWCYYCQAYVHHQALLDVKNIAHQNKFGEDMPHPH
notes: Full length ORF with C-terminal FLAG tag in pBJ5, expressed in TAg Jurkat cells; also called HDAC6-FLAG; HD6

Assays:
HDAC4-EGFP (human) = HDAC4-EGFP (human) (UniProt P56524); assay: cell-based or functional assay
[1] = molecular target: B3; assay: anti-FLAG co-immunoprecipitation from TAg Jurkat cells, Western blot
[2] = molecular target: T2, calyculin A-treated (hyperphosphorylated) HDAC4 (human, UniProt P56524 1-1084, hyperphosphorylated after calyculin A treatment of the cells; sites not determined); assay: immunopurified HDAC4-FLAG from calyculin A-treated cells incubated 1 hour with untreated TAg Jurkat lysate, Western blot
T2 construct: HDAC4-FLAG immunopurified from TAg Jurkat cells treated 1.5 hours with 20 nM calyculin A; also called HDAC4-FLAG from calyculin A-treated cells
Experimental: These samples were analyzed for 14-3-3 and HDAC3 binding by Western blot analysis.

CHD4 = molecular target: T3, CHD4 (UniProt Q14839 1-1912, limits assumed); assay: anti-FLAG co-immunoprecipitation from TAg Jurkat cells, Western blot
T3 construct: Endogenous protein detected by Western blot in immunoprecipitates; also called CHD chromodomain protein

mSin3A = molecular target: T1, mSin3A; assay: as above

T3 sequence (Q14839 whole entry): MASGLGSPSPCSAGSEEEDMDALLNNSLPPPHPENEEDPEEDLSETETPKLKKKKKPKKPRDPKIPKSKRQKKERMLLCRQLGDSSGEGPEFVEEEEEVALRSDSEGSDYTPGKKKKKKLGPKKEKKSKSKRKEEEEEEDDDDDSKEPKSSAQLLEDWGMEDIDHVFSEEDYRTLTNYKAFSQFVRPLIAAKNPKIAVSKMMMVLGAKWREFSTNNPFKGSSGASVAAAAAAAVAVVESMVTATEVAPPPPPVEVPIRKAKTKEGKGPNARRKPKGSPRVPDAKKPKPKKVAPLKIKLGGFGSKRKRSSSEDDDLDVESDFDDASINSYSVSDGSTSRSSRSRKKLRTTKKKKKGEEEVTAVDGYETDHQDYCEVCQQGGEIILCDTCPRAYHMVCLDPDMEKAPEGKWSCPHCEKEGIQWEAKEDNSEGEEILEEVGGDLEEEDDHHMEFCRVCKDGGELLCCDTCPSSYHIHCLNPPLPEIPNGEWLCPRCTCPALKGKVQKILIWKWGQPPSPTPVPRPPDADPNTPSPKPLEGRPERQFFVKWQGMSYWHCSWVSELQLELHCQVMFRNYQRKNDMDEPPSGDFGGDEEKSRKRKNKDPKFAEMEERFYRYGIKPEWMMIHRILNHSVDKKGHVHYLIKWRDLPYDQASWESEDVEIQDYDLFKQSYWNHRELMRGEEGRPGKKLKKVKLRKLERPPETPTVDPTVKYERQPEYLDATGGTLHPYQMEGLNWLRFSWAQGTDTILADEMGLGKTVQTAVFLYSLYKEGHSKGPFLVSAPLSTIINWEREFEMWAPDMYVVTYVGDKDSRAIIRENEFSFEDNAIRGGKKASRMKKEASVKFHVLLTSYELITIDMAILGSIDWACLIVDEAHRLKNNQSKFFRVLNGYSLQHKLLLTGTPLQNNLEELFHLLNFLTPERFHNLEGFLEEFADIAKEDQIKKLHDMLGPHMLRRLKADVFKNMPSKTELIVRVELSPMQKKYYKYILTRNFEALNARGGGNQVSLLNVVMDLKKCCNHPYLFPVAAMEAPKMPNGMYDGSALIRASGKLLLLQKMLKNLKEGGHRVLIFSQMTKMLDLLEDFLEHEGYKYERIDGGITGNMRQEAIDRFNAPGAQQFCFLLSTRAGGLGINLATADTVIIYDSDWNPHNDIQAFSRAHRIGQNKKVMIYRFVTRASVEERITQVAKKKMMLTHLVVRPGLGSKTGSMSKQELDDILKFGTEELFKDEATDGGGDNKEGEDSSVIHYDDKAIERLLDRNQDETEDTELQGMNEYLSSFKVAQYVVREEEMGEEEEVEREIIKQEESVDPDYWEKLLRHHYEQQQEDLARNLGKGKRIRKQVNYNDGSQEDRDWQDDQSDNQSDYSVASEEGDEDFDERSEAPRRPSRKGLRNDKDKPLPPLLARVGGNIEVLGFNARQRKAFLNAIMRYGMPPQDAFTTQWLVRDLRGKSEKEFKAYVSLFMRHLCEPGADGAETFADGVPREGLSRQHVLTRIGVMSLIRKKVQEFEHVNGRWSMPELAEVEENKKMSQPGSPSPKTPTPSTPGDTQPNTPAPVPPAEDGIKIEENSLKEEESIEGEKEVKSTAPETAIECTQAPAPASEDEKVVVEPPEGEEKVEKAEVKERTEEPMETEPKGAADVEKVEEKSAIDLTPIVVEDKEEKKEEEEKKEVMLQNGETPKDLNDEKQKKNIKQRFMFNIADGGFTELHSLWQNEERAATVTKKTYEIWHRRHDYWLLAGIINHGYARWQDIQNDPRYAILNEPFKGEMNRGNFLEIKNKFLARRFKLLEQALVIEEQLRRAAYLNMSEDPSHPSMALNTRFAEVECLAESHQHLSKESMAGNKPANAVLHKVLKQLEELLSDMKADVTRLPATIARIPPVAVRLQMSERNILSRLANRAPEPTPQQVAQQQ
Sequence of 14-3-3 β, P31946 (P31946 whole entry, looked up): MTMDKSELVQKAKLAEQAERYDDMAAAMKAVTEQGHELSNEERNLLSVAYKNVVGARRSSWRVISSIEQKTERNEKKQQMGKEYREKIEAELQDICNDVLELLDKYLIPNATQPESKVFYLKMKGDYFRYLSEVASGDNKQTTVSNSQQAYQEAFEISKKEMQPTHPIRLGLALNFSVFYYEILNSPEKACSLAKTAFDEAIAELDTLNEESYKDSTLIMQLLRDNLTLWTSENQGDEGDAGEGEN
Sequence of 14-3-3 ε, P62258 (P62258 whole entry, looked up): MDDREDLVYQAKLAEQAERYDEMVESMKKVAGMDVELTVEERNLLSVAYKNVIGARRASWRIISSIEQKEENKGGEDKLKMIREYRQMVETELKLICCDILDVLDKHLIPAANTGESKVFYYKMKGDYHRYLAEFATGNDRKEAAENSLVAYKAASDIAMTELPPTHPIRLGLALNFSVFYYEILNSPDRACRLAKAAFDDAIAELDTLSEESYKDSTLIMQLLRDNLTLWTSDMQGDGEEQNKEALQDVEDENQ

Molecule: myc-tagged 14-3-3 β (from UniProt P31946 1-246)
- cytoplasmic localization of HDAC4 (percent of U2OS cells), HDAC4-EGFP with simultaneous overexpression of 14-3-3 (% of the cells) (HDAC4-EGFP (human)): 97
- cytoplasmic localization of HDAC4 (percent of U2OS cells), control: HDAC4-EGFP alone without overexpressed 14-3-3 (% of the cells) (HDAC4-EGFP (human)): 67

Molecule: B1
- localization to the cytoplasm (14-3-3 β, P31946): localization of the triple mutant to the cytoplasm is dramatically decreased compared to the wild-type and single mutants
- localization to the cytoplasm (14-3-3 ε, P62258): localization of the triple mutant to the cytoplasm is dramatically decreased compared to the wild-type and single mutants

Molecule: B2
- binding result [1]: no binding
- binding result [2]: binds

Molecule: B3
- binding result (CHD4): no binding
- binding result (mSin3A): no binding
